Numbered stars: 1 amine (or outer) side, 2 acyl side, 3 side chain; on linkers, the order of the positions; unused ones are H or OH. Bridge positions count the residues as written; N and C are the ends. Square brackets hold non-standard residues; d marks the D form. Ends that are not written are not given here. Hse(Me) = O-methyl-homoserine, COCC[C@H](N[*:1])C(=O)[*:2]; TATA = O=C(CC[*:1])N1CN(C(=O)CC[*:2])CN(C(=O)CC[*:3])C1; Phe(3-Cl) = N[C@@H](Cc1cccc(Cl)c1)C(=O)O; Phe(2-Cl) = N[C@@H](Cc1ccccc1Cl)C(=O)O; Phe(3-F) = N[C@@H](Cc1cccc(F)c1)C(=O)O; Phe(3-Me) = Cc1cccc(C[C@H](N)C(=O)O)c1; Phe(4-Me) = Cc1ccc(C[C@H](N)C(=O)O)cc1; Phe(2-F) = N[C@@H](Cc1ccccc1F)C(=O)O; Phe(2-Me) = Cc1ccccc1C[C@H](N)C(=O)O; Hyp = O=C(O)[C@@H]1C[C@@H](O)CN1; hArg = N=C(N)NCCCC[C@H](N)C(=O)O; tBuAla = CC(C)(C)C[C@H](N)C(=O)O; Agb = N=C(N)NCC[C@H](N)C(=O)O; PYA = propargyl-acid
Assays:
[1] = molecular target: T1, Biotinylated Human ACE2, His, Avitag protein (ACROBiosystems, AC2-H82E6) (human, UniProt Q9BYF1 18-740); experiment: SPR single cycle kinetics, ACE2 captured on CAP chip, peptide analyte; geometric mean
T1 construct: also called biotinylated ACE2; ACE2 protein; not shown: His tag and Avitag
Procedure: (§1) Binding of bicyclic peptides of the invention to Biotinylated Human ACE2, His, Avitag™ protein (ACROBiosystems, AC2-H82E6) was assessed by a SCK analysis. Experiments were performed at 25° C. on a Biacore T200 (Cytiva) running Biacore T200 Control software V2.0.1 and Evaluation software V3.0 (Cytiva). HBS-EP+ (Cytiva) was used as running buffer as well as for ligand and analyte dilutions. Biotin CAPture reagent was loaded onto a Series S Sensor CAP Chip (Cytiva) followed by loading of the ACE2 protein at a flow rate of 2 μl/min. The surface was then allowed to stabilise.
(§2) SCK data was obtained using bicyclic peptides of the invention as analytes injected at a flow rate of 30 μl/min to minimise any potential mass transfer effects. […] The association phases were monitored for 100 seconds for each of the four injections of increasing concentrations of analyte and a single dissociation phase was measured for 400 seconds following the last injection of analyte. Regeneration of the sensor chip surface was conducted using the CAP Chip standard regeneration buffer (Cytiva).
(§3) The signal from the reference channel Fc1 (no ACE2 captured) was subtracted from that of Fc2, Fc3 and Fc4 to correct for bulk effect and differences in non-specific binding to a reference surface. The signal from each blank run (Fc2-ACE2 captured but no antigen) was subtracted to correct for differences in surface stability. The double referenced sensorgrams were fitted with the Langmuir (1:1) binding model (Equation 1a below) where the closeness of fit of the data to the model is evaluated using the Chi square value which describes the deviation between the experimental and fitted (observed and expected) curves (Equation 1b below).

[2] = molecular target: T1, Biotinylated Human ACE2, His, Avitag …; experiment: SPR multiple cycle kinetics, ACE2 captured on CAP chip, peptide analyte 6.25-100 nM; geometric mean
Procedure: Binding of bicyclic peptides of the invention to Biotinylated Human ACE2, His, Avitag™ protein (ACROBiosystems, AC2-H82E6) was assessed by a MCK analysis. Experiments were performed at 25° C. on a Biacore T200 (Cytiva) running Biacore T200 Control software V2.0.1 and Evaluation software V3.0 (Cytiva). HBS-EP+(Cytiva) was used as running buffer as well as for ligand and analyte dilutions. Biotin CAPture reagent was loaded onto a Series S Sensor CAP Chip (Cytiva) followed by loading of biotinylated ACE2 at a flow rate of 2 μl/min. The surface was then allowed to stabilise.
MCK data was obtained using bicyclic peptides of the invention as analytes injected at a flow rate of 30 μl/min to minimise any potential mass transfer effects. A five point, two-fold dilution range from 6.25 nM to 100 nM of analyte was prepared in running buffer. For each concentration, the association phases were monitored for 250 seconds and the dissociation phase was measured for 450 seconds. Regeneration of the sensor chip surface was conducted between cycles using the CAP Chip standard regeneration buffer (Cytiva). Multiple repeats of a blank and of Bicycle were programmed into the kinetic run in order to check the stability of both the surface and analyte over the kinetic cycles.
as §3, with “above)” for “below)”, “1 b above).” for “1b below).”

[3] = molecular target: T1, Biotinylated Human ACE2, His, Avitag …; experiment: SPR single cycle kinetics, ACE2 captured on CAP chip, peptide analyte; geometric mean; * Rmax set to 10
Procedure: as §1, §2, §3

T1 sequence (Q9BYF1 18-740 limits assumed): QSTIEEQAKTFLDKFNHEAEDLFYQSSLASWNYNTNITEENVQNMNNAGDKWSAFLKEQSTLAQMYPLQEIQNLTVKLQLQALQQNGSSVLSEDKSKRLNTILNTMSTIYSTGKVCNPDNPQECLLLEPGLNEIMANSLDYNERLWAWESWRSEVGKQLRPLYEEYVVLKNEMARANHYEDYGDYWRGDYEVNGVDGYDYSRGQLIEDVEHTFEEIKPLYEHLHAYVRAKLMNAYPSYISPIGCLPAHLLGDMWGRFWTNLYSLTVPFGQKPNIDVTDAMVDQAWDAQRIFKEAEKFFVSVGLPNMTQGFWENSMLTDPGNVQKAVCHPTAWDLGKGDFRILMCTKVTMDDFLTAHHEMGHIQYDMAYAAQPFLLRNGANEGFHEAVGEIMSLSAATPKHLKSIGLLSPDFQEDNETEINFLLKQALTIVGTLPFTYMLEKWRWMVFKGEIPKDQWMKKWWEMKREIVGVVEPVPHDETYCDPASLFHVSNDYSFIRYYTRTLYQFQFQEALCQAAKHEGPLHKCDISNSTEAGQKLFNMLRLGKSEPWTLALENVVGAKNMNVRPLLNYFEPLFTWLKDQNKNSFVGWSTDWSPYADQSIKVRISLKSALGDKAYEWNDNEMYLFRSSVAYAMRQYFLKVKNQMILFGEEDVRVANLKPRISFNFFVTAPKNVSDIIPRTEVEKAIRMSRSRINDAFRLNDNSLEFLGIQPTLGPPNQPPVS

B1: BCY17691 (peptide)
peptide: Ac-ACNAVLCSWARANSFCA
modifications: linker 2-7-16 via TATA
notes: bicyclic peptide, TATA scaffold
Kd [1]: 3.9 nM

B2: BCY17159 (peptide)
peptide: ACNRVLCAWATANSMCA
modifications: linker 2-7-16 via TATA
notes: as for B1
Kd [1]: 4.7 nM

B3: BCY17156 (peptide)
peptide: ACTELYKCWRGRCA
modifications: linker 2-8-13 via TATA
notes: as for B1
Kd [1]: 151 nM

B4: BCY18784 (peptide)
peptide: Ac-CNAVLCSWA[hArg]ANSFCK(PYA)
modifications: linker 1-6-15 via TATA
notes: as for B1
Kd [1]: 25.3 nM

B5: BCY17688 (peptide)
peptide: CNAVLCSWARANSFC
modifications: linker 1-6-15 via TATA
notes: bicyclic peptide without terminal additions
Kd [1]: 2.7 nM

B6: BCY17163 (peptide)
peptide: ACNTVLCAWAMNNSMCA
modifications: linker 2-7-16 via TATA
notes: as for B1
Kd [1]: 36.8 nM

B7: BCY17164 (peptide)
peptide: ACNTVLCAWATQNSLCA
modifications: linker 2-7-16 via TATA
notes: as for B1
Kd [1]: 14.8 nM

B8: BCY18210 (peptide)
peptide: Ac-CN[Hyp]VLCSWA[hArg]ANSFC
modifications: linker 1-6-15 via TATA
notes: as for B1
Kd [2]: 10.6 nM
Kd [3]: 21.1 nM

B9: BCY17158 (peptide)
peptide: ACNQVLCRWAQVNSMCA
modifications: linker 2-7-16 via TATA
notes: as for B1
Kd [1]: 4 nM
Kd [2]: 8.1 nM

B10: BCY17663 (peptide)
peptide: Ac-CNAVLCSWARANSFC
modifications: linker 1-6-15 via TATA
notes: as for B1
Kd [1]: 5.3 nM

B11: BCY17333 (peptide)
peptide: ACNAV[tBuAla]CSWARANSFCA
modifications: linker 2-7-16 via TATA
notes: as for B1
Kd [1]: 5 nM

B12: BCY17153 (peptide)
peptide: ACDTLYKCWRGRCA
modifications: linker 2-8-13 via TATA
notes: as for B1
Kd [1]: 91.7 nM

B13: BCY18349 (peptide)
peptide: Ac-CNRVLCAWATANS[Hse(Me)]CK(PYA)
modifications: linker 1-6-15 via TATA
notes: as for B1
Kd [3]: 59.6 nM

B14: BCY17157 (peptide)
peptide: ACNKVLCSWASRNSMCA
modifications: linker 2-7-16 via TATA
notes: as for B1
Kd [1]: 11.8 nM

B15: BCY17152 (peptide)
peptide: ACAEIYKCWRGRCA
modifications: linker 2-8-13 via TATA
notes: as for B1
Kd [1]: 120 nM

B16: BCY18549 (peptide)
peptide: Ac-CNTVLCGWA[hArg]ANSLCAK(PYA)
modifications: linker 1-6-15 via TATA
notes: as for B1
Kd [2]: 42.9 nM
Kd [3]: 63.9 nM

B17: BCY17339 (peptide)
peptide: ACNAVLCSWARANS[Phe(3-Cl)]CA
modifications: linker 2-7-16 via TATA
notes: as for B1
Kd [1]: 4.7 nM

B18: BCY17336 (peptide)
peptide: ACNAVLCSWARANS[Phe(3-Me)]CA
modifications: linker 2-7-16 via TATA
notes: as for B1
Kd [1]: 8.3 nM

B19: BCY17155 (peptide)
peptide: ACNTLYKCWRGKCA
modifications: linker 2-8-13 via TATA
notes: as for B1
Kd [1]: 107 nM

B20: BCY15427 (peptide)
peptide: ACPSQYKCWRGKCA
modifications: linker 2-8-13 via TATA
notes: as for B1
Kd [1]: 150 nM

B21: BCY18259 (peptide)
peptide: Ac-CNAVLCSWA[hArg]ANSFC
modifications: linker 1-6-15 via TATA
notes: as for B1
Kd [2]: 13 nM
Kd [3]: 23 nM

B22: BCY19025 (peptide)
peptide: Ac-CNAVLCSWA[hArg]TNSFC
modifications: linker 1-6-15 via TATA
notes: as for B1
Kd [2]: 70.7 nM

B23: BCY18657 (peptide)
peptide: Ac-CNTVLCSWA[hArg]ANSFC
modifications: linker 1-6-15 via TATA
notes: as for B1
Kd [1]: 69.3 nM

B24: BCY19026 (peptide)
peptide: Ac-CNAVLCSWA[hArg]SNSFC
modifications: linker 1-6-15 via TATA
notes: as for B1
Kd [2]: 45.2 nM

B25: BCY18658 (peptide)
peptide: Ac-CNSVLCSWA[hArg]ANSFC
modifications: linker 1-6-15 via TATA
notes: as for B1
Kd [1]: 6.7 nM
Kd [2]: 13.5 nM

B26: BCY15429 (peptide)
peptide: ACNAVLCSWARANSFCA
modifications: linker 2-7-16 via TATA
notes: as for B1
Kd [1]: 3.4 nM
Kd [2]: 4 nM

B27: BCY17690 (peptide)
peptide: ACNAVLCSWARANSYCA
modifications: linker 2-7-16 via TATA
notes: as for B1
Kd [1]: 4.8 nM

B28: BCY17341 (peptide)
peptide: ACNAVLCSWARANS[Phe(2-F)]CA
modifications: linker 2-7-16 via TATA
notes: as for B1
Kd [1]: 3.1 nM

B29: BCY17337 (peptide)
peptide: ACNAVLCSWARANS[Phe(4-Me)]CA
modifications: linker 2-7-16 via TATA
notes: as for B1
Kd [1]: 5 nM

B30: BCY17154 (peptide)
peptide: ACESLYKCWRGRCA
modifications: linker 2-8-13 via TATA
notes: as for B1
Kd [1]: 104 nM

B31: BCY17335 (peptide)
peptide: ACNAVLCSWARANS[Phe(2-Me)]CA
modifications: linker 2-7-16 via TATA
notes: as for B1
Kd [1]: 2.5 nM

B32: BCY17160 (peptide)
peptide: ACNTVLCNWARYNSLCA
modifications: linker 2-7-16 via TATA
notes: as for B1
Kd [1]: 4.2 nM
Kd [2]: 4.8 nM

B33: BCY18550 (peptide)
peptide: Ac-CNTVLCGWARANSLCK(PYA)
modifications: linker 1-6-15 via TATA
notes: as for B1
Kd [2]: 15.6 nM
Kd [3]: 9.7 nM

B34: BCY17165 (peptide)
peptide: ACSPVLCAWATRNSLCA
modifications: linker 2-7-16 via TATA
notes: as for B1
Kd [1]: 12.5 nM

B35: BCY17689 (peptide)
peptide: ACNAVLCSWA[Agb]ANSFCA
modifications: linker 2-7-16 via TATA
notes: as for B1
Kd [1]: 4.7 nM

B36: BCY17342 (peptide)
peptide: ACNAVLCSWARANS[Phe(3-F)]CA
modifications: linker 2-7-16 via TATA
notes: as for B1
Kd [1]: 3.3 nM

B37: BCY17162 (peptide)
peptide: ACNTVLCGWARANSLCA
modifications: linker 2-7-16 via TATA
notes: as for B1
Kd [1]: 5.7 nM
Kd [2]: 11.4 nM

B38: BCY18350 (peptide)
peptide: Ac-CN[hArg]VLCSWA[hArg]ANSFC
modifications: linker 1-6-15 via TATA
notes: as for B1
Kd [1]: 8.3 nM

B39: BCY17161 (peptide)
peptide: ACNTVLCAWARANSYCA
modifications: linker 2-7-16 via TATA
notes: as for B1
Kd [1]: 4.2 nM
Kd [2]: 4.4 nM

B40: BCY17338 (peptide)
peptide: ACNAVLCSWARANS[Phe(2-Cl)]CA
modifications: linker 2-7-16 via TATA
notes: as for B1
Kd [1]: 3.2 nM

Reference: patent US20230183291A1 (Bicycle, published 2023)
